Measured values from article PMC11707020.

Biological target: USP25 (UniProt Q9UHP3)
Assay: co-immunoprecipitation, western blot
Conditions: reference: HA-STAT3 wild type; sites Y705

binding against the reference: weaker
Substance: STAT3 (from UniProt P40763) HA-STAT3 Y705F
